Measurements from patent publication US20240294624A1, “ANTI-ERYTHROPOIETIN ANTIBODY” (ANDREMACON S.R.L., priority 2021, published 2024).

What was measured:
[1] = tested on: N9 microglia cells; experiment: Microglia proliferation and morphology after LPS; type: cell-based, murine; settings: after LPS stimulation
Protocol: N9 microglial cells were seeded in multiwell plates at a concentration of 1.5×10^4 for 24 hours. The following day the cells were administered the following treatments for 24 hours: • LPS; • Anti-EPO (c4) antibody administered alone; • Anti-EPO (c4) antibody in combination with LPS • Anti-EPO (c4) antibody in combination with LPS and FTY720
N9 cells were detached with enzyme, and an aliquot of known volume was labeled with trypan blue and observed under the microscope for counting. Considering that the number of cells in the culture control, without any treatment, as being 100, the percentage of proliferation of N9 cultured in presence of LPS, anti-EPO (C4) antibody, combination of LPS and anti-EPO antibody was calculated (FIG. 15B).
N9 cells were cultured in Iscove's Modified Dulbecco's MEM, IMDM containing streptomycin/1× penicillin and 2 mM L-glutamine, supplemented with FBS (fetal bovine serum) at 5%. The cells were plated at a concentration of 1.5×10^4 cells/cm2 and kept in a thermostatic incubator at 37° C., with 5% C02, for 24 hours, as above. The next day, the cells were exposed to different treatments for 48 hours. At the end of the treatments, cell viability and proliferation were assessed by staining with trypan blue and observed under the microscope for counting.
The microglia were maintained in a basal culture medium and then activated with lipopolysaccharide (LPS). […]

[2] = tested on: K562; experiment: MTT cell viability assay; type: cell-based, human; settings: 96 hours, 6 μg/ml
Source text: H. Myelogenous leukemia cell line (K562); chronic myeloid leukemia cells. Circulating […] levels are reliably higher in myelodysplastic syndromes than in healthy people, with a negative predictive role;

[3] = Renal and liver toxicity, serum biochemistry; type: in vivo; settings: mice; 11 and 18 days after treatment starting
Protocol: Serum for Biochemistry were collected at least 400 μL of blood and putted it in an eppendorf tube with or without (plasma/serum) anticoagulant. The samples were left at environment temperature for at least 30′ minutes, then centrifuged at 500 g for 10 min, the supernatants were collected, being careful not to take the precipitate and analyzed for Biochemical tests. […] (A) Urea; (B) Creatinine; (C) Albumine, (D) AST; aspartate aminotransferase; (E) ALT: alanine aminotransferase. (FIG. 29)

[4] = tested on: GBM-ECs; experiment: Tube formation assay on Matrigel; type: cell-based, human; settings: 48 h
Protocol: GBM-ECs (1×10^4) were plated on 10 μL of Matrigel in BM, as a Control Condition (CTR, FIG. 8A) or in media containing the anti-EPO (C4) (FIG. 8B), TMZ (FIG. 8C), FTY720 (FIG. 8D), and anti-EPO (C4)+TMZ+FTY720 (FIG. 8E) treatments, as reported above. GBM-ECs were incubated at 37° C., 5% C02, 5% 02. After 48 h, tube-like structure formation was evaluated by phase-contrast microscopy.

[5] = tested on: N9 microglia cells; experiment: Microglia viability, trypan blue; type: cell-based, murine; settings: 48 hours of culture
Protocol: N9 cells were cultured in Iscove's Modified Dulbecco's MEM, IMDM containing streptomycin/1× penicillin and 2 mM L-glutamine, supplemented with FBS (fetal bovine serum) at 5%. The cells were plated at a concentration of 1.5×10^4 cells/cm2 and kept in a thermostatic incubator at 37° C., with 5% CO2, for 24 hours. The next day, the cells were exposed to different treatments for 48 hours. At the end of the treatments, cell viability was assessed by staining with trypan blue. The microglia was maintained in a basal culture medium and then activated with lipopolysaccharide (LPS), a molecule present on the membrane of the Gram-negative bacteria. Furthermore, to study the role of the product “anti-EPO (C4)” in the inhibition of neuroinflammation and then in the inhibition of the activation of microglia, the antibody according to the scheme below was administered, in association and not with LPS, to activate microglia. […]
N9 cells were cultured in Iscove's Modified Dulbecco's MEM, IMDM containing streptomycin/1× penicillin and 2 mM L-glutamine, supplemented with FBS (fetal bovine serum) at 5%. […] At the end of the treatments, cell viability and proliferation were assessed by staining with trypan blue and observed under the microscope for counting. […]

[6] = tested on: HOC84 stem cells; settings: naturally resistant to carboplatin, 96 h, CPT 40 μg/mL
Protocol: HOC84, which are naturally resistant to carboplatin (CPT), were cultured for 96 h in basal condition supplemented with 40 μg/mL of CPT. Cell viability was assessed by 3-(4,5-Dimethylthiazol-2-yl)-2,5-Diphenyl-tetrazoliumBromide (MTT) assay, as a function of redox potential (FIG. 24). […] Then, culture media were replaced with fresh media containing the specific treatments, or in BM as a control condition (CTR).
Test was performed in triplicate after 96 h of treatment, by replacing culture media with 100 μL of fresh media added with 10 μL of MTT 5 mg/ml in D-PBS. After 4 h of incubation, media were removed and cells were lysed with 100 μL of 2-propanol/formic acid (95:5, by vol) for 10 min.

[7] = tested on: HOC84; experiment: MTT cell viability assay; type: cell-based, human; settings: 96 hours, 6 μg/ml
Source text: N. Human ovarian Cell (HOC) cultured in stem cell condition. In particular, HOC84 stem cells were obtained by digestion and cell isolation form a patient-derived xenograft (PDX) model from a high grade serous epithelial ovarian cancer, obtained by serial passages in nude mice.

B1: anti-EPO (C4): isolated anti-Erythropoietin monoclonal antibody, VL SEQ ID NO:6, VH SEQ ID NO:14, hybridoma DSM ACC 3370 (antibody, listed as Homo sapiens, V domains shown)
VH: EVKLQESGGGLVQPGGSLKLSCAASGFTFSTYTMSWVRQTPEKRLEWVAYISNGGDRTYYPDTVKGRFTISRDDAKNTLFLQMSSLKSEDTAMYYCARHNITTVPFTMDYWGQGTSVTVSS
VL: DIVLTQSPASLAVSLGQRATISCRASESVDYYGTGLMQWYQQRPGQPPKLLIYGASNVGSGVPARFSGSGSGTDFSLNIHPVEGDDIAMYFCQQTRKVPSTFGGGTKLEIK
modifications: VH amino acid sequence; VL amino acid sequence
- morphology of microglia [1]: recover or maintain a branched morphology
- cells initially plated dead [2]: 62%
- serum biochemistry (urea, creatinine, albumine, AST, ALT) [3]: no significant variations
- decrease of total length of formed tubes [4]: 70%
- formation of tubular-like structures ([4]; phase-contrast microscopy): able to block the formation of tubular-like structures
- viability [5]: higher than 85%
- mortality [6]: 66%
- cells initially plated dead [7]: 68%
